Assay results as given in paper PMC3794954, “An Improved SELEX-Seq Strategy for Characterizing DNA-Binding Specificity of Transcription Factor: NF-κB as an Example”.

B1: positive dsDNA (dsDNA)
DNA 1: ACTGTCTGAGGAGTGTCGTGTGCTAAAGGGACTTTCCAAAACGACTCAGCACCACTTCACTCAC
DNA 2: GTGAGTGAAGTGGTGCTGAGTCGTTTTGGAAAGTCCCTTTAGCACACGACACTCCTCAGACAGT
B2: probe b (GGGACTTTCCC) (dsDNA)
DNA 1: AGTTGAGGGGACTTTCCCAGGC
DNA 2: GCCTGGGAAAGTCCCCTCAACT

What was measured:
NF-kB p50 [1] = molecular target: T1, NF-kB p50 (UniProt P19838 1-433); assay: EMSA; no polydI-dC; 1x DBB (from 5x): 10 mM Tris-HCl pH 7.5, 50 mM NaCl, 0.5 mM EDTA, 3 mM MgCl2, 1% glycerol, 0.5 mg/ml BSA, 0.05% NP-40, 0.01 mM DTT; room temperature 60 min; 6%; conditions: protein: commercial; chain copies: 2; label: 5' FAM on reverse strand (primer P-R); blunt
T1 sequence (P19838 1-433): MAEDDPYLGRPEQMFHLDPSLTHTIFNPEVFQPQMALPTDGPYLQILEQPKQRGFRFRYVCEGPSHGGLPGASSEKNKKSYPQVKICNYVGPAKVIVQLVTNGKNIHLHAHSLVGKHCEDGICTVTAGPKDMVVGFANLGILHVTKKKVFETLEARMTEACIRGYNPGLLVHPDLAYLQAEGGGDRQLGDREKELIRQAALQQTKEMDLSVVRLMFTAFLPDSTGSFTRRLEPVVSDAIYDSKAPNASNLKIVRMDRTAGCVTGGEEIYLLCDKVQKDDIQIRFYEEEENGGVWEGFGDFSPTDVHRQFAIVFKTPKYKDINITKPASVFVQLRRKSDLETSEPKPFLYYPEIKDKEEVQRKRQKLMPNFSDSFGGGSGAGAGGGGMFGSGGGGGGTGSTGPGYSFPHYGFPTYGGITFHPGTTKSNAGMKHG

NF-kB p50 [2] = molecular target: T1, NF-kB p50; assay: EMSA; higher affinity than the 3' T probe; 1x DBB (from 5x): 10 mM Tris-HCl pH 7.5, 50 mM NaCl, 0.5 mM EDTA, 3 mM MgCl2, 1% glycerol, 0.5 mg/ml BSA, 0.05% NP-40, 0.01 mM DTT; room temperature 60 min; 6%; conditions: protein: commercial; chain copies: 2; label: biotin at ends; blunt

| Binder | binding result (NF-kB p50 [1]) | binding result (NF-kB p50 [2]) |
| --- | --- | --- |
| B1 | binds |  |
| B2 |  | binds |
